# Experimental data taken from PMC3750193, “Disassembly of All SNARE Complexes by N-Ethylmaleimide-sensitive Factor (NSF) Is Initiated by a Conserved 1:1 Interaction between α-Soluble NSF Attachment Protein (SNAP) and SNARE Complex*^([image sbox.jpg])” (The Journal of Biological Chemistry, 2013).
# B1: α-soluble NSF attachment protein (α-SNAP) (natural protein, rat, UniProt P54921 1-295, looked up)
# chain: MDTSGKQAEAMALLAEAERKVKNSQSFFSGLFGGSSKIEEACEIYARAANMFKMAKNWSAAGNAFCQAAQLHLQLQSKHDAATCFVDAGNAFKKADPQEAINCLMRAIEIYTDMGRFTIAAKHHISIAEIYETELVDVEKAIAHYEQSADYYKGEESNSSANKCLLKVAGYAAQLEQYQKAIDIYEQVGTSAMDSPLLKYSAKDYFFKAALCHFCIDMLNAKLAVQKYEELFPAFSDSRECKLMKKLLEAHEEQNVDSYTESVKEYDSISRLDQWLTTMLLRIKKTIQGDEEDLR
# notes: α-SNAP, rat; His6 tag removed with tobacco etch virus protease; source: E. coli BL21(DE3), purified (Ni-NTA, Superdex 200)
# Assays:
# Test in all cases: other fluorescence titration; change in Oregon Green 488 fluorescence intensity of the labeled SNARE complex as a function of α-SNAP concentration; fit y = Fmax·x/(KD + x); three independent experiments
# [1] = target: all four ternary SNARE complexes
# [2] = target: T1, VAMP8-syntaxin4-SNAP23 ternary SNARE complex, labeled with Oregon Green 488 (rat, UniProt Q9WUF4 1-76; Q08850 1-274; O70377 1-210, I76C | C141S | E257C | I261C, Oregon Green 488 (maleimide) on cysteines; the labeled endogenous and mutant cysteines are shown in Figure 1A | Oregon Green 488 (maleimide) on cysteines; the labeled endogenous and mutant cysteines …); conditions: both partners purified
# T1 construct: VAMP8 (endobrevin), rat, residues 1-76; syntaxin4A, rat, residues 1-274; tag-free; SNAP23, rat; Removal of the His6 tag is told only for α-SNAP; also called VAMP8(1–76)-I76C-syntaxin4A(1–274)-C141S/E257C/I261C-SNAP23; source: E. coli BL21(DE3), coexpressed, purified (Ni-NTA, Superdex 200); copies: + +
# T1 sequence (looked up) 1: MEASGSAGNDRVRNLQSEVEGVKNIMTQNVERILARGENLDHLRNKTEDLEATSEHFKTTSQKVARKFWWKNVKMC
# T1 sequence (looked up) 2: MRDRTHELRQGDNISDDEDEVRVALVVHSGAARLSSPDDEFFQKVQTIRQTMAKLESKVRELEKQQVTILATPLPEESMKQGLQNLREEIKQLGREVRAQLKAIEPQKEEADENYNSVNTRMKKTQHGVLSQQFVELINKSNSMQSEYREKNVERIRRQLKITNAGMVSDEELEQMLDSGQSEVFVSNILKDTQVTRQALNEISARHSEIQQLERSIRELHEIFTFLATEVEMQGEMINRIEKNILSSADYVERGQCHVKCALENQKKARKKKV
# T1 sequence (looked up) 3: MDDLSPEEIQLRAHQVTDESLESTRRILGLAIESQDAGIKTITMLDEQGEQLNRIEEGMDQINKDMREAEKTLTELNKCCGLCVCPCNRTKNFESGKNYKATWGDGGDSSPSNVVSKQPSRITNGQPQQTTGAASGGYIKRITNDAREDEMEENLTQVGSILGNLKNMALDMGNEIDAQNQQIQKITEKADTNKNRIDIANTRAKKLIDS
# [3] = target: T2, VAMP7-syntaxin4-SNAP23 ternary SNARE complex, labeled with Oregon Green 488 (rat, UniProt Q9JHW5 1-190; Q08850 1-274; O70377 1-210, C21S | C56V | C141S | E257C | I261C, Oregon Green 488 (maleimide) on cysteines; the labeled endogenous and mutant cysteines are shown in Figure 1A); conditions: both partners purified
# T2 construct: VAMP7, rat, residues 1-190; syntaxin4A, rat, residues 1-274; tag-free; SNAP23, rat; Removal of the His6 tag is told only for α-SNAP; also called VAMP7(1–190)-C21S/C56V-syntaxin4A(1–274)-C141S/E257C/I261C-SNAP23; source: E. coli BL21(DE3), coexpressed, purified (Ni-NTA, Superdex 200); copies: + +
# T2 sequence (looked up) 1: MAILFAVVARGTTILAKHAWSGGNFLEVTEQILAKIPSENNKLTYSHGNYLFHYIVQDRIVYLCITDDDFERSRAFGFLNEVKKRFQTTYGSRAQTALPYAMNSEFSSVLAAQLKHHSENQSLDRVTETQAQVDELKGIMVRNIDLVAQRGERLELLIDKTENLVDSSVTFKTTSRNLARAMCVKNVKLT
# T2 sequence (looked up) 2: T1 sequence (looked up) 2
# T2 sequence (looked up) 3: T1 sequence (looked up) 3
binder,measurement,setting,value
B1,Kd,[1],200 to 600 nM
same,binding result,[2],binds
same,binding result,[3],binds
